Experimental data reported in paper PMC11652679.

Target: Mayaro virus E1-E2 heterodimer on the VLP (Mayaro virus) (UniProt Q8QZ72)
Experiment: cryo-EM structure; single-particle averaging with icosahedral (I1) reconstruction of purified MAYV VLPs, ~1-2 mg/mL in STE buffer, vitrified at 4 °C; final resolution 4.5 Å

Substance: Mayaro virus E1-E2 heterodimer on the VLP (from UniProt Q8QZ72 807-1242) (complex)
- stoichiometry N: 3
